The results in this text go back to IntAct's records for PubMed 25500191.

The labels stand for the following.
B1: Pleckstrin homology domain-containing family M member 1 (Homo sapiens), Q9Y4G2 (parent)
chain: MLSVVENGLDPQAAIPVIKKKLVGSVKALQKQYVSLDTVVTSEDGDANTMCSALEAVFIHGLHAKHIRAEAGGKRKKSAHQKPLPQPVFWPLLKAVTHKHIISELEHLTFVNTDVGRCRAWLRLALNDGLMECYLKLLLQEQARLHEYYQPTALLRDAEEGEFLLSFLQGLTSLSFELSYKSAILNEWTLTPLALSGLCPLSELDPLSTSGAELQRKESLDSISHSSGSEDIEVHHSGHKIRRNQKLTASSLSLDTASSSQLSCSLNSDSCLLQENGSKSPDHCEEPMSCDSDLGTANAEDSDRSLQEVLLEFSKAQVNSVPTNGLSQETEIPTPQASLSLHGLNTSTYLHCEAPAEPLPAQAASGTQDGVHVQEPRPQAPSPLDLQQPVESTSGQQPSSTVSETAREVGQGNGLQKAQAHDGAGLKLVVSSPTSPKNKSWISEDDFYRPSREQPLESASDHPIASYRGTPGSRPGLHRHFSQEPRKNCSLGALDQACVPSPGRRQAQAAPSQGHKSFRVVHRRQMGLSNPFRGLMKLGTVERRGAMGIWKELFCELSPLEFRLYLSNEEHTCVENCSLLRCESVGPAHSDGRFELVFSGKKLALRASSQDEAEDWLDRVREALQKVRPQQEDEWVNVQYPDQPEEPPEAPQGCLSPSDLLSEPAALQGTQFDWSSAQVPEPDAIKESLLYLYMDRTWMPYIFSLSLEALKCFRIRNNEKMLSDSHGVETIRDILPDTSLGGPSFFKIITAKAVLKLQAGNAEEAALWRDLVRKVLASYLETAEEAVTLGGSLDENCQEVLKFATRENGFLLQYLVAIPMEKGLDSQGCFCAGCSRQIGFSFVRPKLCAFSGLYYCDICHQDDASVIPARIIHNWDLTKRPICRQALKFLTQIRAQPLINLQMVNASLYEHVERMHLIGRRREQLKLLGDYLGLCRSGALKELSKRLNHRNYLLESPHRFSVADLQQIADGVYEGFLKALIEFASQHVYHCDLCTQRGFICQICQHHDIIFPFEFDTTVRCAECKTVFHQSCQAVVKKGCPRCARRRKYQEQNIFA

Variants of B1 are the subject of this assay. As to conditions: with rab7a_canlf RAB7A.
In the case of E729A, the “effect of a mutation on the interaction” value was “with no effect”.

R769A: the “effect of a mutation on the interaction” value was “with no effect”.
